According to the domain aggregation screens of Martell et al. (2025):

Experiment: soluble fraction after stress (log2 fold change); higher = more stays soluble; pooled small domains, quantitative proteomics
Details: stress: 75 degC
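Note: 20 min heating vs room temperature control held 20 min.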

Sequence	soluble fraction (log2)
HMPDTETLTPRQRQILDLVQELGFTTIETLAERFGVSAQTVRREIIRLQAGNFLQRFHGGAGLASGGIRSA	-1.24
HMPDYAFEGVVIKLTHRDYDRWKAGFPDVDLPPYLTARDAWLSEQTPADRKNWFVSTATDLRNFQKREAI	-1.26
HMPEDQISYTDLIKQINDGNVEKIKMTVGSTTIKVNLKEQEEPKTAIVPSTQAFIELVQEKVQDGNEITLI	0.164
HMPEITPAMIKALLSSLSEELAFASVTKVYAVLHNLFKAALLDDTIDRNPMDKVPRPRKSKDAAL	-0.576
HMPELPEVETSRRGIEPHLVGATILHAVVRNGRLRWPVSEEIYRLSDQPVLSVQRRAKYLLLELQA	0.0647
HMPELSPEERAIIETLQKNNDLQVNIIAIKTGMDMGSLSAVLFDLEMKGLVKLLAGGMYHLI	-0.66
HMPEPAPALPAKTRVSIRRETGGIIWHEGAWTISPPIRAYDGRWYVAVTTARKGIEFVPVSSVIRS	-2.18
HMPEPMKLSDLPPELWQRVSDLFDEVIDLPETDRIPYIRNLWGSEPLVAKELMALLVAAANVD	-0.452
HMPESFSEMQKRTGVGEFSDDALSAKYVDSIDADVMSLDEYIMKVRGISLDDLEAERALRAR	0.0969
HMPETAQLTDIQVSRSQAHTGIFSLHYYLTGTDSRGERVRLEISGDDYTRLSGSSSVTVEYYRHTGRIVRY	-1.16
HMPETYVVFSKDGYANLRRGTTINSEILDVLDNGEYVTKLDEVGEWYRVEYADFDGGYIHKSQLKNI	-0.288
HMPFDRTVQLAGARARQLQALPRYREVLRLLDEGMNPREIGQVLDPPVTRQRASALIQQAKRAQMLGLFED	-1.04
HMPFNLKSLADRLSHVFPGLVKMRDDIGAIIVMDKIKVTEHGVTEGGGLAADRVRAVYNEFIKEY	-0.247
HMPFSLHGVNEGSRNDNAARIAGYLISKNLNLDFVRIFLHNWNRDNKPPLPQQEIDSVVDNVKKTHDRKN	-2.09
HMPGEATVPSVIGMTKAEAKAKLQASGFELGYSEFVASDKPKGEIVEQDPGAGETAKGGTEVNVKISDGS	0.0718
HMPGLDTTILSDILSLKKELPSRSAAKILIMLILAKRIEEGSLNLRTINRILNQYGYTRESLL	0.144
HMPGLQSVTPAELKIGMYVILPLAWDEHPFLKNHFLIQSEAQINKIRELGTKGIQIDLSKSHP	-1.9
HMPGMLVVYVTGAVRQPGRMVTLAAGSRVSDAIDAAGGLADDADAQALNLSARLNDGDLVHVPSALD	-0.264
HMPHILEITSSKILDELQDEKKMVYFHFEKQSNQYVYRLIFNSKNELMEFKKSLEKNSSILDVRADM	-1.81

Sequence	soluble fraction (log2)
HMPHITDAEWEVMRVVWANHHVTSKEVISILEDKMNWKATTIKTLLGRLVEKGALSTEQDGKKFIYTAR	-1.6
HMPHTDATDKQIIALILETLKDGQKHSVSEMTFPGIPREKTAQLLHQMIEEETVRIQNGVLFLPH	0.00795
HMPIDNTLLSRITSLGVSTTEAEKLISKHGEEALKANLEVVEERLSKPNLPLLDSPAAYLKTALKNG	0.415
HMPIEQVEVPNLTNMTREEAESTLTSLNLKAQVHEEANEADEGKVFKQGTNTGEMVDEGSTIEIWVS	-0.549
HMPIHAGERLTLRLAGEGREAGQAIGYLEDGTLVIVERARHLIGQDVTVEVTRTLQTAGGRLVFAHLVE	-1.1
HMPKDLEKRAAILAAAKHLFPVHGFEGTSMDAIAALANVSKLTVYSHFKDKESLFTEAIREK	-0.0647
HMPKDMAKRASILTAASKLFVQHGYGGVSMDQIAAEAGVSKLTVYSHYGDKDSLFAAAVQAH	-0.617
HMPKELAPYDILARYYLTVNNSKQSIALLEQYLDKAGSAPAALKAKLLLAGILYPSGNKERAEKLVEEVIK	-0.463
HMPKETFLNLDEEKRQAIINVLLKNFSEQHISQVKVSAIVSGIGMSRGAFYKYFEDLEDAYRFTISYFSA	0.147
HMPKLTKEEIQFIDNYLKNSGVEYIDTRAEVVDHVASEIESRLSANNTTNFYEEFKVYMVQHKETLLK	-0.21
HMPKLVGEVMQTLDALRREKGLSLLLVEQNARAALGVVDRVYVLERGRVVFEGSAKEAMEDQDVMEFYLG	0.0465
HMPKRSKDEAELEFLEMLRDNQVDSTWSFGKIISQLGSTDPRYWMVDDDPLWKRQIFEKYLSNR	-0.228
HMPLDISDDSKAVLKLLKNDSNELNTVKSASGLSNKKWDKTIKELTKNKIVSVSKTEDGLYIHLI	0.438
HMPLDYQELRNISPQAARQAILQILKANKGNVSQTARMLGITRKTVYKAMAKREAGNLDDGSRAPK	-1.41
HMPLLELPDDFYPAWKPKTIYVQGQRIMLDGVAFEAKWWTQGDNPASGQADPGSSPWRTLTQEEIAKLLE	-1.52
HMPLLKIGAQGHDVRVVQEALQRAGYAIEGVTGIFDEATREAVLAFQRDQQLTESGTVDRATWHALRR	-0.0683
HMPLLSPRQLDVLSLAAGGLSDAQIAGRLVLSESTVRVHFHHIIEKLGVTDRAGAIAWYEQSRS	-2.05
HMPLNAFDVAGYRLGYGGGYFDRTLAALSPRPLAVGVGFEINRLESIRPEAHDQRLDWIVTENGAFRPA	-1.58
HMPLNAHIVGRGKRDRRGKRGAPYSIVLELGRDENGKRIQKWYSGYPTKAAAEEDKIRMLRELQTGEYVPQ	-0.889
